According to paper PMC2134296:

biological target: adenomatous polyposis coli (APC) protein (endogenous, MDCK cells) (dog (endogenous in MDCK)); test: co-IP

fold coimmunoprecipitated with APC protein relative to endogenous β-catenin [fold] | Substance
3 | ΔN90 β-catenin (KT3-tagged, NH2-terminal 90 amino acids deleted) (from UniProt Q02248 91-781) (domain or fragment)
3 | ΔN131 β-catenin (KT3-tagged, NH2-terminal 131 amino acids deleted) (from UniProt Q02248 132-781) (domain or fragment)
3 | ΔN151 β-catenin (KT3-tagged, NH2-terminal 151 amino acids deleted) (from UniProt Q02248 152-781) (domain or fragment)
